Measured values reported in patent publication US20240345090A1, “EARLY DETECTION OF INNATE IMMUNE DYSFUNCTION AND TREATMENT OF CONDITIONS ASSOCIATED THEREWITH” (UNIVERSITY OF FLORIDA RESEARCH FOUNDATION, INCORPORATED, priority 2021, published 2024).

Test system: CD14+ monocytes
Test: Flow cytometry count of TH+ monocytes after in vitro treatment
Format: cell-based, human
Conditions: healthy donor monocytes, 2 million per well, 4 hours; TPA 100 ng/ml, TNFα 17 ng/ml, IL6 17 ng/ml, XPro1595 50 ng/ml; n=3 per group
Method: Monocytes were isolated from total PBMCs prepared as described above^51 using negative selection (Biolegend, 480048) per manufacturer's instructions. Total PBMCs were Fc-blocked to reduce nonspecific binding, followed by incubations with biotin-conjugated antibody cocktail containing antibodies against all subsets except CD14 (negative selection), followed by incubation with magnetic-Avidin beads, allowing all subsets other than CD14+ monocytes to be bound to the magnet. Monocyte purity/enrichment was routinely verified to confirm that the final cell population was greater than 95% pure CD14+ cells (FIG. S2). CD14+ monocytes were collected from the supernatant fraction, washed, counted and density adjusted such that 2 million CD14+ monocytes were seeded per well (FIG. 5A) and treated for 4 hours with vehicle, TPA (100 ng/ml, Biolegend, 755802)^7, TNFα (17 ng/mL, Biolegend, 570102)^61, XPro1595 (50 ng/ml), or IL6 (17 ng/mL) in an ultra-low-adherence 6-well plate (Corning, 3471) to prevent adherence. Suspended cells from each treatment group were aspirated and placed in a 15 ml conical tube, with any remaining adherent cells detached by incubation with 700 uL Accumax solution for 3 minutes (Innovative Cell Technologies, AM105) and added to suspended cells. […]

B1: TPA: tissue plasminogen activator, positive control for increased monocyte TH expression (Biolegend, 755802) (protein, UniProt P00750 36-562, looked up)
Tissue-type plasminogen …: SYQVICRDEKTQMIYQQHQSWLRPVLRSNRVEYCWCNSGRAQCHSVPVKSCSEPRCFNGGTCQQALYFSDFVCQCPEGFAGKCCEIDTRATCYEDQGISYRGTWSTAESGAECTNWNSSALAQKPYSGRRPDAIRLGLGNHNYCRNPDRDSKPWCYVFKAGKYSSEFCSTPACSEGNSDCYFGNGSAYRGTHSLTESGASCLPWNSMILIGKVYTAQNPSAQALGLGKHNYCRNPDGDAKPWCHVLKNRRLTWEYCDVPSCSTCGLRQYSQPQFRIKGGLFADIASHPWQAAIFAKHRRSPGERFLCGGILISSCWILSAAHCFQERFPPHHLTVILGRTYRVVPGEEEQKFEVEKYIVHKEFDDDTYDNDIALLQLKSDSSRCAQESSVVRTVCLPPADLQLPDWTECELSGYGKHEALSPFYSERLKEAHVRLYPSSRCTSQHLLNRTVTDNMLCAGDTRSGGPQANLHDACQGDSGGPLVCLNDGRMTLVGIISWGLGCGQKDVPGVYTKVTNYLDWIRDNMRP
number of TH+ monocytes, fold change relative to vehicle: significant increases in TH-expressing monocytes relative to vehicle
